Source: publication PMC2928791 (PLoS Pathogens, 2010)

T1: PV GST-2C^ATPase (poliovirus (PV; the paper's PV is type …, UniProt P03300 1128-1456)
T1 sequence: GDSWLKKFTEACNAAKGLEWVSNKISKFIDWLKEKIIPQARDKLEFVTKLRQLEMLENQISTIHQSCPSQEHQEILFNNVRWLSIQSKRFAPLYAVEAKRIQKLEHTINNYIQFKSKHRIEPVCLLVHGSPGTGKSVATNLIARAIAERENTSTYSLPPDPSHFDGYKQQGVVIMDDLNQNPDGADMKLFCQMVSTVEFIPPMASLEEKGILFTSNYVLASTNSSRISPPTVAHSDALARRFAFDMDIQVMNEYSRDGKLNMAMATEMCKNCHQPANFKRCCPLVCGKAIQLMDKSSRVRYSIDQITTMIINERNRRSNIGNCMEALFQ


Key:
[1] = molecular target: CAV20 non-structural protein 2C^ATPase (wt) (coxsackie A virus 20 (CAV20)); assay: co-IP
PV GST-2C^ATPase = molecular target: T1, PV GST-2C^ATPase; assay: […] (50 mM Tris-HCl pH 7.5, 140 mM NaCl, 0.1% Triton X-100, […]; settings: both partners purified

| Molecule | percent of the level in the CAV20 2C^ATPase and CAV20 VP3 Co-IP reaction [1] [%] | binding result (PV GST-2C^ATPase) |
| --- | --- | --- |
| CAV20 structural protein VP3 (wt) (natural protein) | 100 |  |
| PV His-tagged VP3 (natural protein) GLPVMNTPGSNQYLTADNFQSPCALPEFDVTPPIDIPGEVKNMMELAEIDTMIPFDLSATKKNTMEMYRVRLSDKPHTDDPILCLSLSPASDPRLSHTMLGEILNYYTHWAGSLKFTFLFCGFMMATGKLLVSYAPPGADPPKKRKEAMLGTHVIWDIGLQSSCTMVVPWISNTTYRQTIDDSFTEGGYISVFYQTRIVVPLSTPREMDILGFVSACNDFSVRLLRDTTHIEQKALAQ |  | binds |
